Experimental data as given in the DeepSol protein solubility set.

assay: soluble on expression in E. coli; label from the status in PepcDB or PDB records

| Sequence | soluble on expression in E. coli |
| --- | --- |
| MEIIRSNFKINLHKVYQAIEEADFFAIDGEFSGISNGPSVTALTSGFDTPEERYQKLKKHSMDFLLFQFGLCAFKYDHTDSKHVTKSFNFYVFPKPFSRSSPDVKFVCQSSSIDFLASQGFDFNKVFCSGIPYLNQEEERQLREQFDEKRSQANGAGALAKCPVTIPEDQKKFIDQVIEKIEDFLQSEEKRSLELDPCTGFQRKLIYQTLSWKYPKGIHVETLETDKKERHIVISKVDEEERKRREQEKYTKEQEELNDAVGFSRVIHAIANSGKLVVGHNMLLDVMHTIHQFYCPLPADLNEFKEMAICVFPRLLDTKLMASTQPFKDIINNTSLAELEKRLKETPFDPPKVESAEGFPSYDTASEQLHEAGYDAYITGLCFISMANYLGSLLSPPKMCVSARSKLIEPFFNKLFLMRVMDIPYLNLEGPDLQPKRDHVLHVTFPKEWKTSDLYQLFSAFGNIQISWIDDTSAFVSLSQPEQVQIAVNTSKYAESYRIQTYAEYVGKKQKGKQVKRKWTEDSWKEVDRKRPHMQGPCYHSNSFTAAGMLGKRTLSPDPREAALEDRESEEVSDSELEQTDSCTDPLPEGRKKSKKLKRMKKELSLAGSVSDSPAVLFEVPDTW | soluble |
| MGSDKIHHHHHHMRVGLTLYGSLDEQSGGFRYDRKLVEGLRAAGDTVECIQLPWRDYHRGLLDNGSRKLRQRLDVDVDVMLQDELAHPSLVRTNRALSYPIVSIVHHLRASEPRRLAPLYRAVERRYLGTVQAVVCNSATTRNVVTNLGVDPEDTVVAPPAGDQFDPDIDRATIERRATTEPLQVVFVGNVSPRKGLDTLVDGVAAAAVDIDLTVVGRHVDAAHVTSVQERVREHDLADRVQFAGRLPDGELAKTLRSSHVLAVPSRYEGFGIVYLEGMSFGLPALATRAGGAADIVTDDETGVLVDPDDSAAVARELERFATDRDRLAEMGWAARRNYETHPDWEETVGRVRDLLSDIVQPTEVPA | not soluble |
| MGSDKIHHHHHHMDTDLLKTFLEVSRTRHFGKAAENLYLTRSAVSFRIKQLENILGLELFERLRNNIQPTPAGERMLGHAEAVLNAWERAKQDIILNQQHSAQLALSAGDNIWDAFLQGFLQPLHLGLEGVALRTDVLPATVMTRQLIERTLDIAITFDPPKLDGVILVKLAEVKLYLVSKQAGVKLTQTPTLPYIKVDWGTAFNITHAQDFTMLPLPVLHTSSARMALDFILNNGGCAFLPEALIKPYLDNGSLYVVDDAKCIHRHVYAAYWAENERLAYIEQAISILTTDKRTE | not soluble |
| MAHHHHHHMDYCEEAYNKLIEFLSENKTEKMMESSLSSALAVALCYNHRIVNMYENMKGRIFLLDISNETYVYTNQYTQLMNIAYNAKRNNIIIDVFSLNCKIQLLEQICNITNGLYIDSSIFFNVNCTDNIEDVLTQTMIFWFLPSNNTRKYFSNTYLNDDTNIAVCSCHNKQVDIAYICSCCLAIYCSEKDEKTNKERTSCFVCKTRFTKALLRNKVVSDLDFSSI | not soluble |
| MAHHHHHHMMSFTANSGNSPMSQMSPLSQPYTSPQMLPQSSLRPTAPPFTLSGTEDQPTAGAPIRKGGTDPTRYKTTICRNWEMGSCSFKGCTFAHGEEELRMPPRVERYKSSGFDTRRSLTAETPPLYPLNPLPHSGVGRIEHLLNMLYSEVLRERNRFVAHEEANQALEALLKKEQMQREETEVQLEAARWKLEQLRTTVHEASVEINTLLASSPANEELRDRVAMVTQKIASVFSSEDTAVGGGREDEERVMKLLSSLQNCQSTEDM | not soluble |
| MSKDFIINEQIRAREVRLIDQNGDQLGIKSKQEALEIAARRNLDLVLVAPNAKPPVCRIMDYGKFRFEQQKKEKEARK | soluble |
| MTKKLHIKTWGCQMNEYDSSKMADLLGSTHGYELTEIAEEADVLLLNTCSIREKAQEKVFHQLGRWKALKDLNPNLIIGVGGCVASQEGAHIRERAHYVDVIFGPQTLHRLPEMINHVQGTRSPIVDISFPEIEKFDRLPEPRADGPTAFVSIMEGCNKYCTFCVVPYTRGEEVSRPCDDVLFEIAQLAAQGVREVNLLGQNVNAYRGETYDGEICSFAELLRLVAAIDGIDRVRFTTSHPIEFTDDIISVYEDTPELVSFLHLPVQSGSDRVLTMMKRRHTALEYKAIIRKLHNARPGILISSDFIIGFPGETQADFEQTMKLIADVNFDMSYSFVYSARPGTPAADMVDDVLEEEKKQRLYLLQDRITKQAMRFSRLMLGTVQRILVEGTSRKSVMELSGRTENNRVVNFEGTPDMIGKFVDVEIVDVYTNSLRGIVVRTEDQMDLRVHESPSSVIARTRKENEIGVGFYQPLEHHHHHH | soluble |
| EECQVRVGDLTVAKTRGQLTDAAPIGPVTVQALGCNARQVALKADTDNFEQGKFFLISDNNRDKLYVNIRPMDNSAWTTDNGVFYKNDVGSWGGTIGIYVDGQQTNTPPGNYTLTLTGGYWAKDNKQGFTPSGTTGTTKLTVT | soluble |
| MRTVVVIPTYNERDTIERLINDVLAQDKDIHVLVVDDNSPDGTGEIVDRLSEGKGRVHVLHRPGKMGLGSAYRQGFAAALAMDADFIVEMDADYSHDPATLPRFLEAMEGCDLVIGSRYLNGISVVNWPLRRLMLSYFANWYTRLITGLRIMDCTSGFKCFRRRVIESIDMSTIRSDGYSFQIEMNYRCVEKGFQVREIPIIFIDRRSGSSKMSKKIVREAVFMVWKLKLGSVFGALFRLEHHHHHH | not soluble |
| MVIHCKMFNNQRKTLAKEYHELYMNNNTETRKNKHLNERERYAIELYLKEKYTVTEIAKRLGRHRRTIEREITRGTIYLQNSDLTYRKEYCADVAQRRYVENGKNKGPRLKIGNDHELVRYIESKIINEKYSPDAVIGQIKAKGLKFKTSICTKTLYNYIDRGDVFLRLTNKYLPVKKDGKKRIYQRVKKIALKNLKGSSIEERPKEVNDRKEYGHWEMDCVVGRKNSAAVLLVLSERKTREEIILKLPDKTQESVIKAIDELERKYRRKFREKFKTITVDNGTEFLDYRGIEKSKTEPGKDRTKVYYAHPYSSWERGTNENINKLIRRFIPKGTDISKVSKAKIKSIERWINEYPRRMFGYRSAIEMAV | not soluble |
| NTKGIDEIKNLETDFNGRIGVYALDTGSGKSFSYRANERFPLCSSFKGFLAAAVLKGSQDNRLNLNQIVNYNTRSLEFHSPITTKYKDNGMSLGDMAAAALQYSDNGATNIILERYIGGPEGMTKFMRSIGDEDFRLDRWELDLNTAIPGDERDTSTPAAVAKSLKTLALGNILSEHEKETYQTWLKGNTTGAARIRASVPSDWVVGDKTGSCGAYGTANDYAVVWPKNRAPLIISVYTTKNEKEAKHEDKVIAEASRIAIDNLK | soluble |
| MSLKARKSWISDKGPLSVSTQCELAGVTRSGYYGQSKSLMPNTEDLELMKLIDEEYTRHPFYGSRRMKRVLLAQGRKVNRKRVQRLMRNLGLAGIAPGPNTSKPHPQHKIYPYLLRGLVITRPNHVWSTDVTYCRLPGGFMYLTAVIDWYSRKVLAWRLSNSLDSSFCVDCLEEAIRKYGMPEIFNTDQGTQYTSEAFTGVLKSHDIRISMDGRGRALDNIFVERLWRNVKQEDLYLKGYETAVEMMRGLTEYFRFYNIERPHQSLGYKTPDEVYESATGGGARIVDKFFQKSVSEGSSEATGPQQEAAEGHHHHHH | soluble |
| MVGGDGATRREQSLCDSCYFAAFDLVDAPDTIEVMVCARCGAVHRGNRWVDIGADDYVDVAVAETTEALGVHLEAEDVDWEVRPEKLDDNTVRMHATFTGVVRDTHRTEQVAVTVKVSRQTCQRCGRIAGESYASTVQVRAVGRDPTSEETDRAAELAHRIVADMEATGDREAFVTEIGDAESGTDIKLSTTKIGLKLARKLVEEFGGDFEDHETLITEDDDGNEVYRVTYAVRLPEFVPGDVVDIAADDGGPVLVQSNHGNLKGVRVTTGEPYEASFEDGDSPDARKLGAVADATEATVVTVEDDAAIQILDPDTYEAQTVARPDYVDPDASTVPALKSRAGLHVLPDALEHHHHHH | not soluble |
| QAKQTMQTLSTLNELGSKVEEVRNFFNFELPYRVKHVDQVSLKLQLVYAVRLQLESEVSDANGPDVTQLLYSTDRFLESARAFIGSDGELVSLAEQLHTSRGAENNSQQIENMYYRLGALVLESIFSDSNTNTDTYRELDLLFIESDSLSTGERSAFQRRLAQTSSVLAANAQGSYLANQLLKPDFPNQLVSMKATLEQK | not soluble |
| GSPALDTGTTEEDRLKIDVIDWLVFDPAQRAEALKQGNAIMRKFLASKKHEAAKEVFVKIPQDSIAEIYNQCEEQGMESPLPAEDDNAIREHLCIRAYLEAHETFNEWFKHMNSVPGGSGGSWKGHLDALTADVKEKMYNVLLFVDGGWMVDVREDAKEDHERTHQMVLLRKLCLPMLCFLLHTILHSTGQYQECLQLADMVSSERHKLYLVFSKEELRKLLQKLRESSLMLLDQGLDPLGYEIQL | soluble |
| MGILFMSKVGLRGDRRSEGDEVLDPLRQALDSSMQSHNLYQHPQHLAFHVSAPVASTVQQASGLLGPLPHLSSFALQPAHSLLPPLGSHGAGFQENGAKAES | not soluble |
| MSLDQPLTFYGLKSMSGAFASYGKYADMGSRLAIAEHPQLLGHPLKYKVIDTEGNAGKAVRKVQEAIGQDGARFFQGCTLSSSALAVSKEIHKAGGVFMTPVGADEITGKDCNASTFRWSVPTYGAIRETLVPMSRQLPQAKRWYTITPQYVFGDALLDNARKVFAELGVEHIGNSYHSLQEQEFSGYLTNAIAAKPDVLVLLNFGSQASNALRQAVNFGIKDRMKVLMVWSAGLDQFQELGSDVLEGVYLGAQYWHQVDTPLNKLLVAATRKAYGINPNYPLAADYIGTKVMLEAIVKAGSLDGAAVSAALQGMRFQGPTGEELIRPGDHQVLKDYYLLRGKPQGQMRDEGHHHHHH | not soluble |
| MAVKINDLTLPKEKLENEYQVVQVSLWQKDGEALGWTYECVLPKLRFEKISVKVKSEAPVITKETLDEKGMAIVRFDNLMITPWGRVNGQFVSYGLTATAYKATLVPNK | not soluble |
| MAGIEITVIDYYHSKINKDSKMEIKIGELPKVLNKTYLGKLNATPSMNNPVKDTQGGEKQMESMLAYIKQKGWAGESKPNFVMNRNVIGAIPSSTGVENFIVFKTNDVQVIVKTPKEKGQESEGNQMEPWKSLIYGVNFEHHCTKTANEPLPTNDAVTKAVLKAHVPRTQEGSNNSSYSILYSAQIDGIDDKRQHYEMKVLNGGLTKYHLENSSCWFYWQSVFGNCNTLIVGSRTGKQDQDPKTLTKTRERQREELDDISYVSKFVSFSFKT | soluble |
| MIEWQDLHHSELSVSQLYALLQLRCAVFVVEQNCPYQDIDGDDLTGDNRHILGWKNDELVAYARILKSDDDLEPVVIGRVIVSEALRGEKVGQQLMSKTLETCTHHWPDKPVYLGAQAHLQNFYQSFGFIPVTEVYEEDGIPHIGMAREVIQA | soluble |
| MTDNDAVSAAFAHMRQEAKKRTGTVPNLNRPLPKASKSLADNDATPAVPKQRGMATGPDGRRRRRSYSVQRAGSILSDEIKKRGWRKEIAGGWVNSHWDDLVGAQIAAHTKVEMFKDKALFITCDSTAWATNLRMMQRIILRSISEQIGPDIIVELKIFGPKAPSWRHGPLHVKGRGPRDTYG | not soluble |
| MVVFVQSRKRWTYSSAHLLVEEYPSKKVDFKEFASKLTEDEINLRVMPIFWVAGHDNAVLSSTISDSTVALLSRWDVIAAMEAVSRYKVTSMYLTFDMYWQILEHPERELEIFEDLYTFKLCEKGLTVQLREKWKEVAGAILREARTS | not soluble |
| MSPHPQPAPEPVIQYIASCKLPTPWGEFVMHGFEEESGQEHVALTLGEVGDGLPVLARLHSECLTGDALFSLRCDCGFQLEAAMEAISKAGRGALLYLRQEGRGIGLINKIRAYKLQDGGADTVEANERLGFPADMRDFRIARHMLAHLGIGSVKVMTNNPRKLATLEAAGIAVVERVPLQVGRNPYNDRYLDTKAAKLGHMLLKLEHHHHHH | soluble |
